Results reported in the supplement of paper PMC10724198.
± gives the standard deviation of the averaged measurements.

These sequences were tested on Saccharomyces cerevisiae (assay: protein stability index of tFT-peptide fusion (C-terminal peptide) (PSI (0-1 scale)); higher = more stable (slower turnover)). Details: genetic background: wild type; temperature: 30 C.
Procedure: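 Multiplexed protein stability (MPS) profiling in S. cerevisiae. Random 12-aa peptides (tFT-X12 library) are fused to the C-terminus of a sfGFP-mCherry tandem fluorescent timer, after mCherry and a GGGS linker. Cells are FACS-sorted into 8 mCherry/sfGFP bins and deep-sequenced. The protein stability index (PSI) is the read-weighted bin average, scaled from 0 (unstable) to 1 (stable). Only peptides with >10 reads are reported; cells were grown at 30 °C in SC-His with glucose.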
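Also: PSI is a weighted mean of sequencing reads over stability bins, variants kept only with over 10 reads, mCherry proximal and sfGFP distal, peptide attached via GGGS linker.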

In order of rising protein stability index:
1. VPPLRPVAPCRG  0.533 ± 0.014
2. VLVFPVVYWILR  0.543 ± 0.038
3. WGWSLARRFLSV  0.555 ± 0.037
4. VKENLCLLWVYR  0.562 ± 0.013
5. RVLLLTGAFELV  0.585 ± 0.028
6. PPPPRPLKLFPP  0.588 ± 0.014
7. GRGAGRATQSPP  0.597 ± 0.064
8. GKNAEENNIVRE  0.614 ± 0.083
9. GVRCCGLCGVGV  0.615 ± 0.0088
10. PASLPTPLPLPP  0.618 ± 0.016
11. EAKKKKRRDRKE  0.621 ± 0.029
12. KIIKNKIKKHNK  0.626 ± 0.018
13. SLGAHHAAFRVV  0.63 ± 0.044
14. KNRAEMREGIAL  0.63 ± 0.018
15. FFNFVYYFTTPR  0.635 ± 0.019
16. LVCHDWFSFYMF  0.64 ± 0.035
17. EVGHLILYKIGC  0.648 ± 0.017
18. GGIVGVSWLVRS  0.657 ± 0.03
19. LISLERRGVAGR  0.657 ± 0.043
20. LMLSGFGSFCVA  0.659 ± 0.025
21. RHGTRHKLLGTL  0.659 ± 0.016
22. VRRRRVPSEATR  0.667 ± 0.044
23. KKITKPKSQRLV  0.669 ± 0.014
24. VLRHRGEGGPGA  0.67 ± 0.035
25. SIPVHGPCNRVV  0.671 ± 0.025
26. TAKVYEKEGGEE  0.671 ± 0.019
27. PQPPPPPPLSVS  0.673 ± 0.0087
28. MGLRDPEWSGDI  0.673 ± 0.018
29. LPPPSPGLPLSP  0.6773 ± 0.0059
30. LAPSPTSRPIKC  0.677 ± 0.018
31. CPGTSRADFSAV  0.681 ± 0.044
32. LFRFFPWPPPPA  0.682 ± 0.034
33. THTPPPHRPSNR  0.682 ± 0.22
34. KRIQGEICVPGA  0.682 ± 0.041
35. LPLSGIETSVSR  0.683 ± 0.03
36. FLLPRFDSAFPL  0.684 ± 0.031
37. SLRLFSPILSSL  0.684 ± 0.011
38. VVVAWGGGAVVG  0.684 ± 0.018
39. PPPGPDGVASNF  0.685 ± 0.053
40. EGGGGGAGDARR  0.685 ± 0.017
41. QKKKKKNKNDQK  0.686 ± 0.056
42. AVGRSVVCINRA  0.686 ± 0.041
43. AVLGGAGGGWAG  0.687 ± 0.12
44. ELPECEHLTSLT  0.691 ± 0.068
45. PTIMYIRKTEER  0.692 ± 0.043
46. VAGGTCGGRACC  0.694 ± 0.099
47. VGKYVVTKNGGC  0.694 ± 0.043
48. YTSHPVLPEVNG  0.695 ± 0.035
49. WNCRILGLVMRG  0.695 ± 0.029
50. PPPSPPCTPSLI  0.696 ± 0.036
51. GKQNQEKNKKTS  0.696 ± 0.045
52. KKMKSKTKEINK  0.698 ± 0.035
53. KGCRYVGARHEG  0.698 ± 0.017
54. VGGIVGWFCRGR  0.698 ± 0.081
55. LRWFLTGWPRGE  0.699 ± 0.16
56. CCRANWDFPIPS  0.707 ± 0.027
57. IQAGHLYPESLV  0.708 ± 0.056
58. FFPFFLSFSPPF  0.708 ± 0.023
59. NRELTAVTFQRY  0.709 ± 0.05
60. LLLPPRLPNISP  0.709 ± 0.044
61. VPRCLPVGLLFF  0.71 ± 0.19
62. KAQKKGRHSKEL  0.712 ± 0.0059
63. AGWPAGARARAP  0.712 ± 0.016
64. TYTELSFKNCVE  0.713 ± 0.042
65. AVSFGSTLANWA  0.718 ± 0.062
66. PSFSPPQVPFPV  0.721 ± 0.06
67. SRGRSFFAGVGG  0.722 ± 0.042
68. APPARSPPPPRP  0.7216 ± 0.0026
69. FLHPPPSALVLP  0.726 ± 0.03
70. CASACPPPPPAT  0.726 ± 0.019
71. KKQKEKEKLVYC  0.733 ± 0.085
72. VGTRGARREVQT  0.734 ± 0.07
73. PPSNPLTRAQCL  0.737 ± 0.14
74. VFSASCYSNSAR  0.739 ± 0.032
75. KGGLLPWGPWNA  0.743 ± 0.064
76. KDIVSEPKVKRE  0.744 ± 0.012
77. PLYRPCPGSRRA  0.745 ± 0.0097
78. EVGLGAAGLSGP  0.749 ± 0.031
79. SPFPLSSLRPLP  0.7552 ± 0.0022
80. MCGLVGDVLAVG  0.762 ± 0.1
81. SLPSSVAFLFPR  0.802 ± 0.17
